Results taken from patent US10072299B2, “Antibodies against epidermal growth factor receptor (EGFR) and uses thereof” (Merrimack Pharmaceuticals, Inc., priority 2011, dated 2018).

Tests used:
[1] = conversion of irinotecan by nonspecific carboxylesterases; cited from earlier work
mouse EGFR = mouse EGFR (Mus musculus, UniProt Q01279); assay: Cross reactivity with mouse EGFR; assay type: binding
phospho-ERK = phospho-ERK ELISA in A431 cells; assay type: cell-based, human
Description: Cells are serum starved in 1% FBS medium with antibiotics and 2 mM L-glutamine for about 20 hours at 37° C. and 5% carbon dioxide. Cells are then preincubated with varying concentrations of anti-EGFR antibodies for 2 hrs, and then stimulated with human EGF ligand (50 ng/ml) (PeproTech, cat # AF-100-15) for 10 minutes at 37° C. and 5%/carbon dioxide. […] Lysates are either analyzed immediately by ELISA for ERK (a downstream effector of EGFR) and EGFR phosphorylation, or frozen at −80° C. until use.
The phospho-ERK ELISA is performed similarly to the phospho-EGFR ELISA with the following changes: Human pERK ELISA Duoset kit is purchased from R&D Systems (cat# DYC1018-5) and used as recommended by the manufacturer.
A431 cells were treated with a dilution series of antibody and phospho-ERK inhibition measured by ELISA.
Experiments were performed with rhEGF (PeproTech) dosed at a concentration of 50 ng/mL or 500 ng/mL.

phospho-EGFR = phospho-EGFR ELISA in A431 cells; assay type: cell-based, human; conditions: EGF stimulated

CCc1c2c(nc3ccc(O)cc13)-c1cc3c(c(=O)n1C2)COC(=O)[C@]3(O)CC [SN-38, 7-Ethyl-10-hydroxy-camptothecin]
activity of metabolite relative to irinotecan [1]: 100-1000 fold

B1: P1X: affinity matured anti-EGFR monoclonal antibody (Bin1) of parental ca; VH SEQ ID NO: 19, VL SEQ ID NO: 20 (antibody, V domains shown)
VH: MGFGLSWLFLVAILKGVQCQVQLVQSGAEVKKPGSSVKVSCKASGGTFSSYAISWVRQAPGQGLEWMGSIIPIFGTVNYAQKFQGRVTITADESTSTAYMELSSLRSEDTAVYYCARDPSVNLYWYFDLWGRGTLVTVSS
VL: MGTPAQLLFLLLLWLPDTTGDIQMTQSPSTLSASVGDRVTITCRASQSISSWWAWYQQKPGKAPKLLIYDASSLESGVPSRFSGSGSGTEFTLTISSLQPDDFATYYCQQYHAHPTTFGGGTKVEIK
cross reaction with (binding to) mouse EGFR (mouse EGFR): cross reacts with (binds to) mouse EGFR | phospho-ERK inhibition with 80 nM EGF (in words) (phospho-ERK; 80 nM of EGF ligand): partial | phospho-ERK inhibition (in words) (phospho-ERK; EGF 50 ng/ml, dilution series): dose-dependent inhibition of phospho-ERK activity

B2: P3X: affinity matured anti-EGFR monoclonal antibody (Bin3) of parental ch; VH SEQ ID NO: 23, VL SEQ ID NO: 24 (antibody, V domains shown)
VH: MGFGLSWLFLVAILKGVQCQVQLVQSGAEVKKPGASVKVSCKASGYAFTSYGINWVRQAPGQGLEWMGWISAYNGNTYYAQKLRGRVTMTTDTSTSTAYMELRSLRSDDTAVYYCARDLGGYGSGSVPFDPWGQGTLVTVSS
VL: MGTPAQLLFLLLLWLPDTTGEIVMTQSPATLSVSPGERATLSCRASQSVSSNLAWYQQKPGQAPRLLIYGASTRATGIPARFSGSGSGTEFTLTISSLQSEDFAVYYCQDYRTWPRRVFGGGTKVEIK
phospho-EGFR inhibition, single antibody (in words) (phospho-EGFR): partial phospho-EGFR inhibition
